# T1: recombinant human CD123 protein (R&D Systems, 301-R3/CF) (human, UniProt P26951 19-305)
# T1 construct: Bought recombinant His-tagged extracellular domain of human CD123; also called recombinant CD123; in house biotinylated-CD123 recombinant protein; not shown: His tag of the bought protein
# T1 sequence: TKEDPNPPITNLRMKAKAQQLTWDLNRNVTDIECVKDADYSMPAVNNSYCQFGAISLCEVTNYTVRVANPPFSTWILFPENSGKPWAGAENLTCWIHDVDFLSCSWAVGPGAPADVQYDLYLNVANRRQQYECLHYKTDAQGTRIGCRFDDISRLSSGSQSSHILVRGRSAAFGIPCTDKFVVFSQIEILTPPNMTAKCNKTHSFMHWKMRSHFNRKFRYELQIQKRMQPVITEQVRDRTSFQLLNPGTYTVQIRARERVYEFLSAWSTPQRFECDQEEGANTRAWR
# T2: cynomolgus CD123 expressed on HEK Flp-In cells (cynomolgus)
# T2 construct: EHH61867.1; also called cyCD123; cyno CD123
# T2 chain: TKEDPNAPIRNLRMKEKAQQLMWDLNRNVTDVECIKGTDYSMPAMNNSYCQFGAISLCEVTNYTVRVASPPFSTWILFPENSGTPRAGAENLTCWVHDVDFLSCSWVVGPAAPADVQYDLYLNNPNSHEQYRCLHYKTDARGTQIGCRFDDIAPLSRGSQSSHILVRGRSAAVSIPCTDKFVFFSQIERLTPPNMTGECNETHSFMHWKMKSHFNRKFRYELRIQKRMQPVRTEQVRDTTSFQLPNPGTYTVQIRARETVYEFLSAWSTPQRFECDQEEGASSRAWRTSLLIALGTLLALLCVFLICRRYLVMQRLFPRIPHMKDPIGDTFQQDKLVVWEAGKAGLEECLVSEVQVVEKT
# B1: T017000121 (bispecific antibody)
# chain: EVQLVESGGGSVQAGGSLRLSCAASGYTIGPYCMGWFRQAPGKEREGVAAINMGGGITYYADSVKGRFTISQDNAKNTVYLLMNSLEPEDTAIYYCAADSTIYASYYECGHGLSTGGYGYDSWGQGTLVTVSSGGGGSGGGGSGGGGSGGGGSGGGGSGGGGSGGGGSEVQLVESGGGLVQAGGSLRLSCAASGITSKINDMGWYRQTPGNYREWVASITATGTTNYRDSVKGRFTISRDNAKSTVYLQMNSLKPEDTTVYYCNTFPPISNFWGQGTLVTVSSGGGGSGGGGSGGGGSGGGGSGGGGSGGGGSGGGGSEVQLVESGGGLVQPGGSLRLSCVASGDVHKINFLGWYRQAPGKEREKVAHISIGDQTDYADSAKGRFTISRDESKNMVYLQMNSLKPEDTAVYFCRAFSRIYPYDYWGQGTLVTVSS
# notes: Multispecific Nanobody polypeptide expressed in Pichia; also called cAbLys3(D1E,Q5V,A6E,Q108L)-35GS-A0110056A10-35GS-T0170056G05-FLAG3-HIS6; not shown: C-terminal FLAG3-HIS6 tag
# B2: T017000120 (bispecific antibody)
# chain: EVQLVESGGGSVQAGGSLRLSCAASGYTIGPYCMGWFRQAPGKEREGVAAINMGGGITYYADSVKGRFTISQDNAKNTVYLLMNSLEPEDTAIYYCAADSTIYASYYECGHGLSTGGYGYDSWGQGTLVTVSSGGGGSGGGGSGGGGSGGGGSGGGGSGGGGSGGGGSEVQLVESGGGLVQAGGPLRLSCAASGRTFSSYVMGWFRQAPGKEREFVAAIYWSNGKTQYTDSVKGRFTISGDNAKNTVYLQMNSLNPEDTAVYYCVADKDETGFRTLPIAYDYWGQGTLVTVSSGGGGSGGGGSGGGGSGGGGSGGGGSGGGGSGGGGSEVQLVESGGGLVQPGGSLRLSCVASGDVHKINFLGWYRQAPGKEREKVAHISIGDQTDYADSAKGRFTISRDESKNMVYLQMNSLKPEDTAVYFCRAFSRIYPYDYWGQGTLVTVSS
# notes: Multispecific Nanobody polypeptide expressed in Pichia; also called cAbLys3(D1E,Q5V,A6E,Q108L)-35GS-A0110055F03-35GS-T0170056G05-FLAG3-HIS6; not shown: C-terminal FLAG3-HIS6 tag
# B3: T017000113 (bispecific antibody)
# chain: EVQLVESGGGLVQAGGPLRLSCAASGRTFSSYVMGWFRQAPGKEREFVAAIYWSNGKTQYTDSVKGRFTISGDNAKNTVYLQMNSLNPEDTAVYYCVADKDETGFRTLPIAYDYWGQGTLVTVSSGGGGSGGGGSGGGGSGGGGSGGGGSGGGGSGGGGSEVQLVESGGGSVQAGGSLRLSCAASGYTIGPYCMGWFRQAPGKEREGVAAINMGGGITYYADSVKGRFTISQDNAKNTVYLLMNSLEPEDTAIYYCAADSTIYASYYECGHGLSTGGYGYDSWGQGTLVTVSSGGGGSGGGGSGGGGSGGGGSGGGGSGGGGSGGGGSEVQLVESGGGLVQPGGSLRLSCVASGDVHKINFLGWYRQAPGKEREKVAHISIGDQTDYADSAKGRFTISRDESKNMVYLQMNSLKPEDTAVYFCRAFSRIYPYDYWGQGTLVTVSS
# notes: Multispecific Nanobody polypeptide expressed in Pichia; also called A0110055F03-35GS-cAbLys3(D1E,Q5V,A6E,Q108L)-35GS-T0170056G05-FLAG3-HIS6; not shown: C-terminal FLAG3-HIS6 tag
# B4: T017000115 (bispecific antibody)
# chain: EVQLVESGGGLVQAGGSLRLSCAASGITSKINDMGWYRQTPGNYREWVASITATGTTNYRDSVKGRFTISRDNAKSTVYLQMNSLKPEDTTVYYCNTFPPISNFWGQGTLVTVSSGGGGSGGGGSGGGGSGGGGSGGGGSGGGGSGGGGSEVQLVESGGGSVQAGGSLRLSCAASGYTIGPYCMGWFRQAPGKEREGVAAINMGGGITYYADSVKGRFTISQDNAKNTVYLLMNSLEPEDTAIYYCAADSTIYASYYECGHGLSTGGYGYDSWGQGTLVTVSSGGGGSGGGGSGGGGSGGGGSGGGGSGGGGSGGGGSEVQLVESGGGLVQPGGSLRLSCVASGDVHKINFLGWYRQAPGKEREKVAHISIGDQTDYADSAKGRFTISRDESKNMVYLQMNSLKPEDTAVYFCRAFSRIYPYDYWGQGTLVTVSS
# notes: Multispecific Nanobody polypeptide expressed in Pichia; also called A0110056A10-35GS-cAbLys3(D1E,Q5V,A6E,Q108L)-35GS-T0170056G05-FLAG3-HIS6; not shown: C-terminal FLAG3-HIS6 tag
# Legend:
# [1] = biological target: T1, recombinant human CD123 protein (R&D …); test: SPR (ProteOn XPR36), CD123 immobilized
# Experimental: (§1) Binding affinities for the CD123/TCR multispecific polypeptides were evaluated by means of an SPR based affinity determination on a ProteOn XPR36 instrument. […] The dissociation time of the 1000 nM sample was 15 min. Flow rate was 45 μl/min and ProteOn running buffer (PBS, pH 7.4, 0.005% Tween 20) was used as running buffer. Evaluation of the association/dissociation data was performed by fitting a 1:1 interaction model (Langmuir binding model).
# [2] = biological target: T3, human CD123 expressed on cells (human, UniProt P26951 19-378); test: flow cytometry competition, MOLM-13 cells, competitor A0110056A10-Alexa647 (0.4 nM)
# T3 construct: the cell line is named under assay; also called huCD123; IL-3Rα
# Experimental: (§2) Next to binding to the MOLM-13 and CHO Flp-In huCD123 cells, binding to cyno CD123 transfected HEK Flp-In cells was assessed.
# [3] = biological target: T3, human CD123 expressed on cells; test: flow cytometry competition, CHO Flp-In huCD123 cells, competitor A0110056A10-Alexa647 (0.9 nM)
# Experimental: as §2
# [4] = biological target: T2, cynomolgus CD123 expressed on HEK …; test: flow cytometry competition, HEK Flp-In cyCD123 cells, competitor A0110056A10-Alexa647 (0.9 nM)
# Experimental: as §2
# [5] = biological target: T1, recombinant human CD123 protein (R&D …); test: SPR (ProteOn XPR36), CD123 immobilized; values only indicative (incomplete regeneration)
# Experimental: as §1
binder,measurement,setting,value
B1,Kd,[1],22 nM
same,koff,[1],0.00086 s⁻¹
same,kon,[1],40000 M⁻¹ s⁻¹
same,IC50,[2],26 nM
same,IC50,[3],23 nM
same,IC50,[4],110 nM
B2,Kd,[5],170 nM
same,koff,[5],0.0025 s⁻¹
same,kon,[5],15000 M⁻¹ s⁻¹
B3,Kd,[1],160 nM
same,koff,[1],0.0032 s⁻¹
same,kon,[1],20000 M⁻¹ s⁻¹
B4,Kd,[5],1.5 nM
same,koff,[5],0.00051 s⁻¹
same,kon,[5],330000 M⁻¹ s⁻¹

# — patent US20240199740A1 (Ablynx, published 2024)
